Where a chain is given by its changes, count along the chain named.
B1: Fab 8B06 (Fab, V domains shown)
VH: QVQLVQSGGGVVQPGRSLRLSCAASGFTFSSYGMYWVRQAPGKGLEWVAVISYDGSNKYYADSVKGRFTISRDNSKNTLNLQMNSLRAEDTAVYYCAKGALTHWGVVIGDGMDVWGQGTTVTVSS
VL: NFMLTQPHSVSESPGKTVTISCRETELSRRLHYVRWYQQRPGSSPTTVIYEDDQRPSGVPDRFSGSIDSSSNSASLTISGLKTEDEADYYCQSFDSTNPWVFGGGTKLTVL
notes: Purified Fab prepared from IgG with the Pierce kit; also called 8B06 Fab
B2: 8B06 mAb (antibody, V domains shown)
VH: B1 VH
VL: B1 VL
notes: Formatted into an IgG1; also called 8B06 IgG1
B3: 8D04 mAb (antibody, V domains shown)
VH: B1 VH
VL: B1 VL with E24G, E26G, L27S, R29F, R30H, L31H, H32K
notes: Formatted into an IgG1; also called 8D04 IgG1
B4: 8D06 mAb (antibody, V domains shown)
VH: B1 VH
VL: B1 VL with R23V, E24L, T25S, E26P, L27R, S28T, R29H, R30A, L31G, V34Y
notes: Formatted into an IgG1; also called 8D06 IgG1
B5: Fab 8A04 (Fab, V domains shown)
VH: B1 VH
VL: B1 VL with R23M, E24R, E26G, L27T, S28G, R29N, R30K, L31G, V34T
notes: Purified Fab prepared from IgG with the Pierce kit; also called 8A04 Fab
B6: Fab 8G08 (Fab, V domains shown)
VH: B1 VH
VL: B1 VL with R23I, E24S, T25N, E26D, L27V, S28P, R29A, R30S, L31G, V34H
notes: Purified Fab prepared from IgG with the Pierce kit; also called 8G08 Fab
B7: Fab 8D04 (Fab, V domains shown)
VH: B1 VH
VL: B1 VL with E24G, E26G, L27S, R29F, R30H, L31H, H32K
notes: Purified Fab prepared from IgG with the Pierce kit; also called 8D04 Fab
B8: 8G08 mAb (antibody, V domains shown)
VH: B1 VH
VL: B1 VL with R23I, E24S, T25N, E26D, L27V, S28P, R29A, R30S, L31G, V34H
notes: Formatted into an IgG1; also called 8G08 IgG1
B9: 8A04 mAb (antibody, V domains shown)
VH: B1 VH
VL: B1 VL with R23M, E24R, E26G, L27T, S28G, R29N, R30K, L31G, V34T
notes: Formatted into an IgG1; also called 8A04 IgG1

Columns and labels:
human PD-L1-Fc protein [1] = target: T1, human PD-L1-Fc protein (human, UniProt Q9NZQ7 19-239); test: ELISA, Fab on coated human PD-L1-Fc, pH 6
T1 construct: Bought from R&D Systems; also called immobilised PD-L1-Fc; not shown: Fc part of the bought fusion protein, not described

biotinylated human PD-L1 [2] = target: T2, biotinylated human PD-L1 (human, UniProt Q9NZQ7 19-239, limits assumed, biotinylated (sites not given)); test: competition ELISA, Fab with biotinylated PD-L1 on coated PD-1-Fc, pH 6.5
T2 construct: Bought from R&D Systems; also called biotinylated-PD-L1; human PD-L1 biotin

human PD-L1-Fc protein [3] = target: T1, human PD-L1-Fc protein; test: BIAcore off rate, unpurified periplasmic extract Fab on PD-L1, pH 6
human PD-L1-Fc protein [4] = target: T1, human PD-L1-Fc protein; test: BIAcore off rate, unpurified periplasmic extract Fab on PD-L1
human PD-L1 on cells [5] = target: T3, human PD-L1 on cells (human, UniProt Q9NZQ7 19-290); test: flow cytometry on MDA-MB-231 cells, Krebs-lactate buffer, pH 6 versus pH 7.4
T3 construct: Endogenous on MDA-MB-231 cells or transfected into HEK293FF cells (Sino Biological plasmid); the assay field says which; also called native PD-L1 on MDA-MB-231 cells; PD-L1 expressing MDA-MB-231 cells
Method: In order to mimic an acidic tumor environment milieu with tumor cells expressing PD-L1 (The metabolism of tumors in the body, Warburg et al. J Gen Physiol. 1927; 8:519-30) the following buffers were utilised: Krebs ringer bicarbonate buffer (KRB, Amsbio catalog number KRB-1000) with 1 mM lactic acid (Sigma catalog number 252476-50DG) for pH 7.4; KRB plus 15 mM lactic acid for pH 6.5 and KRB plus 20 mM lactic acid for pH 6.0). 3 fold dilutions (100 nM to 0.0005 nM; 0) of the Fabs or IgG were prepared in the respective pH buffers and incubated with 0.60E05 MDA-MB-231 cells for 60 minutes at 4° C. The cells were then washed 3× with the respective pH buffers, at 300 g for 3 min. The cells were then incubated with 50 μl of anti-human IgG (Fab specific)-FITC (Sigma, catalog number F5512-1ML) at 1:100 dilution in the respective pH buffers. Binding of the IgG or Fab to PD-L1 expressing cells was measured by FACS (Attune Nxt) and a total of 10.000 cells were acquired per sample.
(§1) Anti-PD-L1 affinity matured Fabs were tested for their ability to bind to native PD-L1 in a cell line, (MDA-MB-231 cells) in a buffer resembling the tumor microenvironment (Krebs-lactate).

human PD-L1-Fc protein [6] = target: T1, human PD-L1-Fc protein; test: ELISA, Fab on coated human PD-L1-Fc; ratio from extrapolating an OD of 0.3 at pH 6 versus pH 7.4
biotinylated human PD-L1 [7] = target: T2, biotinylated human PD-L1; test: competition ELISA, Fab with biotinylated PD-L1 on coated PD-1-Fc, pH 6
biotinylated human PD-L1 [8] = target: T2, biotinylated human PD-L1; test: competition ELISA, Fab with biotinylated PD-L1 on coated PD-1-Fc
human PD-L1 on cells [9] = target: T3, human PD-L1 on cells; test: flow cytometry on MDA-MB-231 cells, Krebs buffer, pH 7.4
Method: as §1

human PD-L1 on cells [10] = target: T3, human PD-L1 on cells; test: flow cytometry on MDA-MB-231 cells, Krebs buffer; ratio of EC50 values
Method: as §1

human PD-L1-Fc protein [11] = target: T1, human PD-L1-Fc protein; test: ELISA, Fab on coated human PD-L1-Fc, pH 7.4
biotinylated human PD-L1 [12] = target: T2, biotinylated human PD-L1; test: competition ELISA, Fab with biotinylated PD-L1 on coated PD-1-Fc; ratio of IC50 values
biotinylated human PD-L1 [13] = target: T2, biotinylated human PD-L1; test: competition ELISA, Fab with biotinylated PD-L1 on coated PD-1-Fc, pH 6; remark: listed apart in the source
biotinylated human PD-L1 [14] = target: T2, biotinylated human PD-L1; test: competition ELISA, Fab with biotinylated PD-L1 on coated PD-1-Fc, pH 7.4
human PD-L1-Fc protein [15] = target: T1, human PD-L1-Fc protein; test: BIAcore off rate, unpurified periplasmic extract Fab on PD-L1, pH 7.4
human PD-L1 on cells [16] = target: T3, human PD-L1 on cells; test: flow cytometry on MDA-MB-231 cells, Krebs buffer, pH 6.5
Method: as §1

human PD-L1 on cells [17] = target: T3, human PD-L1 on cells; test: flow cytometry on MDA-MB-231 cells, Krebs buffer, pH 6
Method: as §1

human PD-L1-Fc protein [18] = target: T1, human PD-L1-Fc protein; test: ELISA, purified Fab on coated human PD-L1-Fc, pH 6 (FIG. 4)
human PD-L1 on cells [19] = target: T3, human PD-L1 on cells; test: flow cytometry on MDA-MB-231 cells, pH 6
human PD-L1 on cells [20] = target: T3, human PD-L1 on cells; test: flow cytometry on MDA-MB-231 cells, pH 7.4
human PD-L1 on cells [21] = target: T3, human PD-L1 on cells; test: flow cytometry on MDA-MB-231 cells, pH 6.5

T1 sequence (Q9NZQ7 19-239 limits assumed): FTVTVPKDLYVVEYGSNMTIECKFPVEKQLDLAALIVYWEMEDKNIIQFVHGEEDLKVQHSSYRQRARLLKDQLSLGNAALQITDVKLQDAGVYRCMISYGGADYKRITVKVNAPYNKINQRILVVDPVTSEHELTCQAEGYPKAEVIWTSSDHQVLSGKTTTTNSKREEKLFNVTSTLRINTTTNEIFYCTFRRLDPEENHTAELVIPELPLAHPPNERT
T2 sequence (Q9NZQ7 19-239 limits assumed): as above
T3 sequence (Q9NZQ7 19-290 limits assumed): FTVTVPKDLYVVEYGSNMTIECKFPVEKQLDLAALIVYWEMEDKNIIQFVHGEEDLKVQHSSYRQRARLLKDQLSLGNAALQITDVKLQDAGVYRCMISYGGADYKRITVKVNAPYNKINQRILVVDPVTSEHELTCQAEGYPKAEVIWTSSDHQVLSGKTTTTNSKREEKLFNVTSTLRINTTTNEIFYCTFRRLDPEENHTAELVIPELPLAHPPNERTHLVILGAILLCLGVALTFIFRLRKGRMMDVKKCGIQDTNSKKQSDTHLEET

| EC50 (human PD-L1-Fc protein [1]) [nM] | IC50 (biotinylated human PD-L1 [2]) [nM] | koff (human PD-L1-Fc protein [3]) [s⁻¹] | Ratio pH 6 vs 7.4 (human PD-L1-Fc protein [4]) | pH binding preference (fold) (human PD-L1 on cells [5]) | Ratio pH 6:7.4 (human PD-L1-Fc protein [6]) | fold less (IC50) than the control Fab 2.7A04OPT at pH 6 (biotinylated human PD-L1 [7]) [fold] | EC50 (human PD-L1 on cells [9]) [nM] | Ratio pH 6:7.4 (human PD-L1 on cells [10]) | EC50 (human PD-L1-Fc protein [11]) [nM] | Ratio pH 6:7.4 (biotinylated human PD-L1 [12]) | IC50 (biotinylated human PD-L1 [13]) [nM] | IC50 (biotinylated human PD-L1 [14]) [nM] | koff (human PD-L1-Fc protein [15]) [s⁻¹] | EC50 (human PD-L1 on cells [16]) [nM] | EC50 (human PD-L1 on cells [17]) [nM] | concentration at saturation of binding (human PD-L1-Fc protein [18]) [nM] | EC50 (human PD-L1 on cells [19]) [nM] | EC50 (human PD-L1 on cells [20]) [nM] | EC50 (human PD-L1 on cells [21]) [nM] | also measured | Binder |
| --- | --- | --- | --- | --- | --- | --- | --- | --- | --- | --- | --- | --- | --- | --- | --- | --- | --- | --- | --- | --- | --- |
| 0.31 | 52.7 | 0.00135 | 13 | > 100 | 38 | ~3 | > 100 | > 50 | > 100 | > 6.37 | 15.7 | > 100 | 0.0105 | 6.4 | 2 | 4 |  |  |  | fold less inhibitory activity at pH 6.5 than at pH 6 (biotinylated human PD-L1 [8]): ~3 fold | B1 |
|  |  |  |  |  |  |  |  |  |  |  |  |  |  |  |  |  | 0.14 | 0.12 | 0.17 |  | B2 |
|  |  |  |  |  |  |  |  |  |  |  |  |  |  |  |  |  | 0.11 | 0.1 | 0.13 |  | B3 |
|  |  |  |  |  |  |  |  |  |  |  |  |  |  |  |  |  | 0.11 | 0.08 | 0.11 |  | B4 |
| 0.54 | 29.4 | 0.00131 | 9 | > 100 | 11 | ~3 | > 100 | > 46.3 | > 10 | 6.66 | 12.2 | 81.2 | 0.015 | 6.62 | 2.16 | 4 |  |  |  | fold less inhibitory activity at pH 6.5 than at pH 6 (biotinylated human PD-L1 [8]): ~3 fold | B5 |
| 0.1 | 41.6 | 0.000823 | 27 |  | 53 | ~3 | 13.2 | 8.35 | > 100 | > 8.26 | 12.1 | > 100 | 0.00308 | 2.95 | 1.58 | 4 |  |  |  | fold less inhibitory activity at pH 6.5 than at pH 6 (biotinylated human PD-L1 [8]): ~3 fold | B6 |
| 2.63 | > 100 | 0.00283 | 10 | > 100 | 9 |  | > 100 | > 7.41 | > 100 | > 2.36 | 42.3 | > 100 | 0.0275 | 56.4 | 13.5 | 4 |  |  |  | fold less potent than Fabs 8D06, 8A04, 8G08 and 8B06 (biotinylated human PD-L1 [8]): ~3 fold | B7 |
|  |  |  |  |  |  |  |  |  |  |  |  |  |  |  |  |  | 0.08 | 0.09 | 0.07 |  | B8 |
|  |  |  |  |  |  |  |  |  |  |  |  |  |  |  |  |  | 0.09 | 0.09 | 0.11 |  | B9 |

From patent US20220356255A1 (CENTESSA PHARMACEUTICALS UK, published 2022)
